Patent US20260284189A1, “TREATMENT OF NON-SMALL CELL LUNG CANCER” (ASTRAZENECA AB, priority 2023, published 2026)
Several values for one entry are separate records, joined by “and”; a condition that tells them apart may be missing. Equal entries are not always repeated.

Test: AEGEAN phase III: adverse events in the safety analysis set (CTCAE v5.0)
Conditions: for COVID-19: number of patients with event / COVID-19: patients with event: grouped term; for Any immune-mediated event: number of patients / Any immune-mediated event: patients: immune-mediated AE
[1] = all-causality, safety analysis set N = 400
[2] = any cause, Any Grade, safety analysis set N = 400
[3] = any cause, Any Grade, safety analysis set N = 400, listed as durvalumab
[4] = any cause, Max. Grade 3 or 4, safety analysis set N = 400
[5] = immune-mediated AE (grouped term), Any Grade 3 or 4, safety analysis set N = 400
[6] = immune-mediated AE (grouped term), Any Grade, safety analysis set N = 400
[7] = Any Grade 3 or 4, safety analysis set N = 400
[8] = Any Grade, safety analysis set N = 400
[9] = overall study period, safety analysis set N = 400
[10] = overall study period, safety analysis set N = 400, listed as durvalumab
[11] = possibly related to study treatment, Any Grade, safety analysis set N = 400
[12] = possibly related to study treatment, Max. Grade 3 or 4, safety analysis set N = 400

Source text: Safety was monitored throughout the study and adverse events (AEs) were graded using the National Cancer Institute Common Toxicity Criteria for AEs version 5.0.

## Durvalumab: antibody that selectively binds PD-L1 and blocks binding of PD-L1 to PD-1 and CD80; arm given with platinum-based chemotherapy before surgery
[1]
  Adverse events leading to cancellation of surgery: number of patients: 7
  Adverse events leading to cancellation of surgery: patients: (1.8) %
  Adverse events leading to discontinuation of durvalumab/placebo: number of patients: 48
  Adverse events leading to discontinuation of durvalumab/placebo: patients: (12.0) %
[2]
  COVID-19: number of patients with event: 44
  COVID-19: patients with event: (11.0) %
  Alopecia: number of patients with event: 68
  Alopecia: patients with event: (17.0) %
  Anemia: number of patients with event: 136
  Anemia: patients with event: (34.0) %
  Asthenia: number of patients with event: 50
  Asthenia: patients with event: (12.5) %
  Constipation: number of patients with event: 99
  Constipation: patients with event: (24.8) %
  Decreased appetite: number of patients with event: 73
  Decreased appetite: patients with event: (18.3) %
  Diarrhea: number of patients with event: 52
  Diarrhea: patients with event: (13.0) %
  Fatigue: number of patients with event: 52
  Fatigue: patients with event: (13.0) %
  Insomnia: number of patients with event: 41
  Insomnia: patients with event: (10.3) %
  Nausea: number of patients with event: 101
  Nausea: patients with event: (25.3) %
  Neutropenia: number of patients with event: 68
  Neutropenia: patients with event: (17.0) %
  Neutrophil count decreased: number of patients with event: 64
  Neutrophil count decreased: patients with event: (16.0) %
  Procedural pain: number of patients with event: 44
  Procedural pain: patients with event: (11.0) %
  Pruritis: number of patients with event: 47
  Pruritis: patients with event: (11.8) %
  Rash: number of patients with event: 56
  Rash: patients with event: (14.0) %
  Vomiting: number of patients with event: 45
  Vomiting: patients with event: (11.3) %
[3]
  Pruritis: patients with event: 11.8%
  Rash: patients with event: 14%
[4]
  COVID-19: number of patients with event: 1
  COVID-19: patients with event: (0.3) %
  Alopecia: number of patients with event: 0
  Anemia: number of patients with event: 26
  Anemia: patients with event: (6.5) %
  Asthenia: number of patients with event: 0
  Constipation: number of patients with event: 1
  Constipation: patients with event: (0.3) %
  Decreased appetite: number of patients with event: 1
  Decreased appetite: patients with event: (0.3) %
  Diarrhea: number of patients with event: 3
  Diarrhea: patients with event: (0.8) %
  Fatigue: number of patients with event: 0
  Insomnia: number of patients with event: 0
  Nausea: number of patients with event: 1
  Nausea: patients with event: (0.3) %
  Neutropenia: number of patients with event: 36
  Neutropenia: patients with event: (9.0) %
  Neutrophil count decreased: number of patients with event: 39
  Neutrophil count decreased: patients with event: (9.8) %
  Procedural pain: number of patients with event: 1
  Procedural pain: patients with event: (0.3) %
  Pruritis: number of patients with event: 1
  Pruritis: patients with event: (0.3) %
  Rash: number of patients with event: 2
  Rash: patients with event: (0.5) %
  Vomiting: number of patients with event: 3
  Vomiting: patients with event: (0.8) %
Any cause, assessed as unrelated to study treatment, safety analysis set, listed as D
  COVID-19 events of max. grade 5: number of patients: 5
Any cause, safety analysis set, listed as D
  Decreased appetite with an outcome of death (max. grade 5): number of patients: 1
[5]
  Dermatitis/Rash: number of patients: 2
  Dermatitis/Rash: patients: (0.5) %
  Diarrhea/Colitis: number of patients: 0
  Hepatic events: number of patients: 8
  Hepatic events: patients: (2.0) %
  Hyperthyroid events: number of patients: 0
  Hypothyroid events: number of patients: 0
  Pneumonitis: number of patients: 5
  Pneumonitis: patients: (1.2) %
[6]
  Dermatitis/Rash: number of patients: 22
  Dermatitis/Rash: patients: (5.5) %
  Diarrhea/Colitis: number of patients: 3
  Diarrhea/Colitis: patients: (0.7) %
  Hepatic events: number of patients: 13
  Hepatic events: patients: (3.2) %
  Hyperthyroid events: number of patients: 7
  Hyperthyroid events: patients: (1.7) %
  Hypothyroid events: number of patients: 37
  Hypothyroid events: patients: (9.2) %
  Pneumonitis: number of patients: 15
  Pneumonitis: patients: (3.7) %
immune-mediated AE (grouped term), Any Grade, safety analysis set N = 400, listed as durvalumab
  Pneumonitis: patients: 3.7%
[7]
  Any immune-mediated event: number of patients: 17
  Any immune-mediated event: patients: (4.2) %
Any Grade 3 or 4, safety analysis set N = 400, listed as durvalumab
  Any immune-mediated event: patients: 4.2%
[8]
  Any immune-mediated event: number of patients: 95
  Any immune-mediated event: patients: (23.7) %
Any Grade, safety analysis set N = 400, listed as durvalumab
  Any immune-mediated event: patients: 23.7% and 23.5%
[9]
  All-causality adverse events with outcome of death: number of patients: 23
  All-causality adverse events with outcome of death: patients: (5.8) %
  All-causality adverse events, maximum grade 3 or 4: number of patients: 169
  All-causality adverse events, maximum grade 3 or 4: patients: (42.3) %
  All-causality serious adverse events: number of patients: 150
  All-causality serious adverse events: patients: (37.5) %
  Any-grade adverse events possibly related to durvalumab/placebo/chemotherapy: number of patients: 346
  Any-grade adverse events possibly related to durvalumab/placebo/chemotherapy: patients: (86.5) %
  Any-grade all-causality adverse events: number of patients: 386
  Any-grade all-causality adverse events: patients: (96.5) %
  Possibly related adverse events with outcome of death: number of patients: 7
  Possibly related adverse events with outcome of death: patients: (1.8) %
  Possibly related adverse events, maximum grade 3 or 4: number of patients: 129
  Possibly related adverse events, maximum grade 3 or 4: patients: (32.3) %
[10]
  All-causality adverse events, maximum grade 3 or 4: patients: 42.3%
  Any-grade adverse events possibly related to durvalumab/placebo/chemotherapy: patients: 86.5%
  Any-grade all-causality adverse events: patients: 96.5%
  Possibly related adverse events with outcome of death: patients: 1.8%
  Possibly related adverse events, maximum grade 3 or 4: patients: 32.3%
[11]
  Alanine aminotransferase increased: number of patients with event: 30
  Alanine aminotransferase increased: patients with event: (7.5) %
  Alopecia: number of patients with event: 66
  Alopecia: patients with event: (16.5) %
  Anemia: number of patients with event: 104
  Anemia: patients with event: (26.0) %
  Arthralgia: number of patients with event: 21
  Arthralgia: patients with event: (5.3) %
  Asthenia: number of patients with event: 34
  Asthenia: patients with event: (8.5) %
  Constipation: number of patients with event: 44
  Constipation: patients with event: (11.0) %
  Decreased appetite: number of patients with event: 49
  Decreased appetite: patients with event: (12.3) %
  Diarrhea: number of patients with event: 34
  Diarrhea: patients with event: (8.5) %
  Fatigue: number of patients with event: 42
  Fatigue: patients with event: (10.5) %
  Hypothyroidism: number of patients with event: 37
  Hypothyroidism: patients with event: (9.3) %
  Leukopenia: number of patients with event: 33
  Leukopenia: patients with event: (8.3) %
  Nausea: number of patients with event: 84
  Nausea: patients with event: (21.0) %
  Neutropenia: number of patients with event: 60
  Neutropenia: patients with event: (15.0) %
  Neutrophil count decreased: number of patients with event: 61
  Neutrophil count decreased: patients with event: (15.3) %
  Platelet count decreased: number of patients with event: 29
  Platelet count decreased: patients with event: (7.3) %
  Pruritis: number of patients with event: 33
  Pruritis: patients with event: (8.3) %
  Rash: number of patients with event: 37
  Rash: patients with event: (9.3) %
  Thrombocytopenia: number of patients with event: 24
  Thrombocytopenia: patients with event: (6.0) %
  Vomiting: number of patients with event: 31
  Vomiting: patients with event: (7.8) %
  White blood cell count decreased: number of patients with event: 25
  White blood cell count decreased: patients with event: (6.3) %
[12]
  Alanine aminotransferase increased: number of patients with event: 2
  Alanine aminotransferase increased: patients with event: (0.5) %
  Alopecia: number of patients with event: 0
  Anemia: number of patients with event: 17
  Anemia: patients with event: (4.3) %
  Arthralgia: number of patients with event: 1
  Arthralgia: patients with event: (0.3) %
  Asthenia: number of patients with event: 0
  Constipation: number of patients with event: 0
  Decreased appetite: number of patients with event: 0
  Diarrhea: number of patients with event: 3
  Diarrhea: patients with event: (0.8) %
  Fatigue: number of patients with event: 0
  Hypothyroidism: number of patients with event: 0
  Leukopenia: number of patients with event: 9
  Leukopenia: patients with event: (2.3) %
  Nausea: number of patients with event: 1
  Nausea: patients with event: (0.3) %
  Neutropenia: number of patients with event: 36
  Neutropenia: patients with event: (9.0) %
  Neutrophil count decreased: number of patients with event: 38
  Neutrophil count decreased: patients with event: (9.5) %
  Platelet count decreased: number of patients with event: 7
  Platelet count decreased: patients with event: (1.8) %
  Pruritis: number of patients with event: 1
  Pruritis: patients with event: (0.3) %
  Rash: number of patients with event: 2
  Rash: patients with event: (0.5) %
  Thrombocytopenia: number of patients with event: 6
  Thrombocytopenia: patients with event: (1.5) %
  Vomiting: number of patients with event: 3
  Vomiting: patients with event: (0.8) %
  White blood cell count decreased: number of patients with event: 8
  White blood cell count decreased: patients with event: (2.0) %
